Experiment [1] concerns the target T1, proprotein convertase subtilisin/kexin type 9 (PCSK9) (human, UniProt Q8NBP7 31-692).
T1 construct: His-tagged full-length PCSK9 in TR-FRET and SPR, biotinylated in phage ELISA; secreted protein is autoprocessed (prodomain plus catalytic/CRD chain starting at S153); also called rec.PCSK9; His-PCSK9
Briefly: phage spot ELISA.

Experiment [2] has as its target T2, PCSK9Δhelix (human, Chemically biotinylated in the phage ELISAs; the site is not given.).
T2 construct: construct M1-Q692 with engineered TEV site, cleaved by TEV; also called His-PCSK9Δhelix; open groove PCSK9Δhelix
Briefly: phage spot ELISA. In general terms: An ELISA detects its analyte on a solid surface through an enzyme-linked reagent.

The target in experiment [3] is T3, PCSK9 (proprotein convertase subtilisin/kexin type 9), His-tagged, full-length (human, UniProt Q8NBP7 31-692).
T3 construct: Captured by the His tag (SPR Methods 1 and 2), amine-coupled (Method 3), or His-tagged in TR-FRET; also called His-PCSK9
T3 sequence (Q8NBP7 31-692 limits assumed): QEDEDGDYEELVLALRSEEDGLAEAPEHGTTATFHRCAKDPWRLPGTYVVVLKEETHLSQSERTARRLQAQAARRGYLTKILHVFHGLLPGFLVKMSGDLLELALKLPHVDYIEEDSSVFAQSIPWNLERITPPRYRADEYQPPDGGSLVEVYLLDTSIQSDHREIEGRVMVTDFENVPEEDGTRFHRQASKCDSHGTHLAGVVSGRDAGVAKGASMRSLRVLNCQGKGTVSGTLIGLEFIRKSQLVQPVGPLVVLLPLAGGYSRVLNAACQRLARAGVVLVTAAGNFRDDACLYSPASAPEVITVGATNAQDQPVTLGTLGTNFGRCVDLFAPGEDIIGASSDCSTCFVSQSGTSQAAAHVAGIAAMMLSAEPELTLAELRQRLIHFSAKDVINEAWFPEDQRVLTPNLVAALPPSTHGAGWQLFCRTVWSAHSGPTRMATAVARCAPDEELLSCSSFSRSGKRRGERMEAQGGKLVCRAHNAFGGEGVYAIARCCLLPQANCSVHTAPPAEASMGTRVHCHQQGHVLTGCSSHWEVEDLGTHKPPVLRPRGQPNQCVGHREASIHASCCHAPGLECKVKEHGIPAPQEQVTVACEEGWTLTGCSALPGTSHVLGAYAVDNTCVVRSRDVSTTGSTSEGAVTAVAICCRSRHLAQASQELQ
Briefly: TR-FRET competition; competitor EGF(A)-Fc binding to His-PCSK9. On the technique in general: Time-resolved FRET reads energy transfer from a long-lived donor to a nearby acceptor.

In experiment [4] the target is T4, PCSK9Δhelix (human, UniProt Q8NBP7 31-152; Q8NBP7 168-692).
T4 construct: Made by TEV cleavage of human PCSK9 M1-Q692 with an engineered TEV site; The new N-terminus of the catalytic domain is S-A168; also called His-PCSK9Δhelix; PCSK9 lacking the P' helix
T4 sequence (Q8NBP7 31-152, stated change not applied, chain 1 of 2): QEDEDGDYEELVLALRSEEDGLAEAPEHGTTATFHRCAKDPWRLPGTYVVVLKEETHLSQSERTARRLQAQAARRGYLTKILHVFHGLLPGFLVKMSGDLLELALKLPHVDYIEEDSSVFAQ
T4 sequence (Q8NBP7 other isoform, or with tags, fused parts or gaps mutant, chain 2 of 2): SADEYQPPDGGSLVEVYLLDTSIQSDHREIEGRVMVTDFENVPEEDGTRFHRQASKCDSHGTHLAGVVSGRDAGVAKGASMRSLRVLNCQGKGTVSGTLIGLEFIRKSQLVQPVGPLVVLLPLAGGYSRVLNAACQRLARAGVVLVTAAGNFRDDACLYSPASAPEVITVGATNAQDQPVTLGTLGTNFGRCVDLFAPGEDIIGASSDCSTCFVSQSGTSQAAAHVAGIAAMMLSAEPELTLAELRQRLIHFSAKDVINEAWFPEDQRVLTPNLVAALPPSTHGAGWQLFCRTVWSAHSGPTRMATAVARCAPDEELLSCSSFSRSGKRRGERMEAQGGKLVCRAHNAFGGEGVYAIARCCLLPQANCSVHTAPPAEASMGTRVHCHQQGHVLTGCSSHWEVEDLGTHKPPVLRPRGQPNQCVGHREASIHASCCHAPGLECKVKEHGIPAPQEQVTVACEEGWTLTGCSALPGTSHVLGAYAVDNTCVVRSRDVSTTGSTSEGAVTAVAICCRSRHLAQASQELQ
Briefly: TR-FRET competition; competitor Ab20 binding to His-PCSK9Δhelix.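 Note: readout is anti-His-APC on PCSK9 with anti-Fc-europium on the Fc-tagged ligand, compound incubated 30 min, normalized signal ratio fitted by four-parameter logistic regression.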

Broadly, the IC50 is the concentration needed to halve the response being measured. A higher IC50 goes with lower potency.

* marks the point of attachment. Pentanoyl = CCCCC(=O)*

T2 sequence (prodomain, as listed by the source mutant limits assumed, chain 1 of 2): as the sequence (Q8NBP7 31-152, stated change not applied, chain 1 of 2) above
T2 sequence (chain, as listed by the source mutant limits assumed, chain 2 of 2): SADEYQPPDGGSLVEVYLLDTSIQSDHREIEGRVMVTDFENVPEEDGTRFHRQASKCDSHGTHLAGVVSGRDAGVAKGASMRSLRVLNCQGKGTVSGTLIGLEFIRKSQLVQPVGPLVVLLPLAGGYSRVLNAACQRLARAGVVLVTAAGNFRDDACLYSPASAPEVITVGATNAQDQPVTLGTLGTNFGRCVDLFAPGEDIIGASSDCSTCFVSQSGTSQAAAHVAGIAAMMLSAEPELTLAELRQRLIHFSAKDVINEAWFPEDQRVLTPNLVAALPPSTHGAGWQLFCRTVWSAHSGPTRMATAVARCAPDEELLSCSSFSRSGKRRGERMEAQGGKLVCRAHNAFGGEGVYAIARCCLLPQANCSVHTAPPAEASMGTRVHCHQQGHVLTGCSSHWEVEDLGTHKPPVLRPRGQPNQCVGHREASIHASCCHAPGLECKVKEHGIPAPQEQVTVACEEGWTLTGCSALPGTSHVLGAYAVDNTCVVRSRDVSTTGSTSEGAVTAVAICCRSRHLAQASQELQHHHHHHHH
T1 sequence (Q8NBP7 other isoform, or with tags, fused parts or gaps limits assumed): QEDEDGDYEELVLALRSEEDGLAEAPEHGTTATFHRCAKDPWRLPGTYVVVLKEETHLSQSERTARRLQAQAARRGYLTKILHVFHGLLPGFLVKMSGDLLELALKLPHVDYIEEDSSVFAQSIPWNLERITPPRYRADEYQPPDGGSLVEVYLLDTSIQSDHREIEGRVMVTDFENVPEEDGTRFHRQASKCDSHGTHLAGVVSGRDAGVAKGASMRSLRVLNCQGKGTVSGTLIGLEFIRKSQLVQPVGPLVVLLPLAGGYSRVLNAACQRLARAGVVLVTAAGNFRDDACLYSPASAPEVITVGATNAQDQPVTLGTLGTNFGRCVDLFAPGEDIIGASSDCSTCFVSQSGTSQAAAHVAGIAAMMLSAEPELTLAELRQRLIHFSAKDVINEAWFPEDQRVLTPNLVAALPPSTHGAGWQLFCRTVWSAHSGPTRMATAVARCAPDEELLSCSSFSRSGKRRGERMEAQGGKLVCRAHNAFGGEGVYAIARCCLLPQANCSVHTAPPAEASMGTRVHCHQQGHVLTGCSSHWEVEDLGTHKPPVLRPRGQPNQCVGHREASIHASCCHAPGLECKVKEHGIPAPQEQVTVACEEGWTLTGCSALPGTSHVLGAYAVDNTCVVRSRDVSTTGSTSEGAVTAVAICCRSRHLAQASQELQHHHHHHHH

B1: SEQ ID NO 380 (peptide)
peptide: SGRNGSGYINRGIEIW
Regarding B1, the ELISA came out at 0.447 in experiment [1] and 0.638 with PCSK9Δhelix [2]. For the same molecule, the s/n in experiment [1] came to 3.85; with PCSK9Δhelix [2], 5.5.

B2: Compound 119 (peptide)
peptide: Ac-PWNLVRIGL-NH2
Regarding B2, the IC50 in experiment [3] was above 50 µM; with PCSK9Δhelix [4], 49.5 µM.

B3: Compound 46 (peptide)
peptide: Ac-DLMPWNLVRIGLL-NH2
For the molecule B3, the IC50 was above 50 µM in experiment [3] and 14 µM with PCSK9Δhelix [4].

B4: Compound 112 (peptide)
peptide: Pentanoyl-WNLVRIGLTR-NH2
SMILES: CCCCC(=O)N[C@@H](Cc1c[nH]c2ccccc12)C(=O)N[C@@H](CC(N)=O)C(=O)N[C@@H](CC(C)C)C(=O)N[C@H](C(=O)N[C@@H](CCCNC(=N)N)C(=O)N[C@H](C(=O)NCC(=O)N[C@@H](CC(C)C)C(=O)N[C@H](C(=O)N[C@@H](CCCNC(=N)N)C(N)=O)[C@@H](C)O)[C@@H](C)CC)C(C)C
As for B4, the values for the 50% inhibitory concentration (IC50) (in experiment [3]; in the experiment with PCSK9Δhelix [4]) were above 50 µM and 7.5 µM, respectively.

B5: Compound 114 (peptide)
peptide: Pentanoyl-WNLVRIGTLR-NH2
SMILES: CCCCC(=O)N[C@@H](Cc1c[nH]c2ccccc12)C(=O)N[C@@H](CC(N)=O)C(=O)N[C@@H](CC(C)C)C(=O)N[C@H](C(=O)N[C@@H](CCCNC(=N)N)C(=O)N[C@H](C(=O)NCC(=O)N[C@H](C(=O)N[C@@H](CC(C)C)C(=O)N[C@@H](CCCNC(=N)N)C(N)=O)[C@@H](C)O)[C@@H](C)CC)C(C)C
Consider B5, for which the IC50 in experiment [3] was above 50 µM.

B6: Compound 113 (peptide)
peptide: Pentanoyl-WNLVRIGTTR-NH2
SMILES: CCCCC(=O)N[C@@H](Cc1c[nH]c2ccccc12)C(=O)N[C@@H](CC(N)=O)C(=O)N[C@@H](CC(C)C)C(=O)N[C@H](C(=O)N[C@@H](CCCNC(=N)N)C(=O)N[C@H](C(=O)NCC(=O)N[C@H](C(=O)N[C@H](C(=O)N[C@@H](CCCNC(=N)N)C(N)=O)[C@@H](C)O)[C@@H](C)O)[C@@H](C)CC)C(C)C
For the molecule B6, in experiment [3], the half-inhibitory concentration (IC50) is above 50 µM.

B7: SEQ ID NO 379 (peptide)
peptide: SGNALWNHDRLT
For B7, the values for the ELISA (in experiment [1]; in the experiment with PCSK9Δhelix [2]) were 0.591 and 0.665, respectively. The s/n in experiment [1] was found to be 6.42; with PCSK9Δhelix [2], 7.07.

B8: SEQ ID NO 377 (peptide)
peptide: SGAGKLDLSG
In experiment [1], B8 had an ELISA of 2.87 and a s/n of 11.1. In the experiment with PCSK9Δhelix [2], this molecule showed an ELISA of 1.75 and a s/n of 4.17.

B9: Compound 120 (peptide)
peptide: Ac-WNLVRIGL-NH2
Consider B9, for which the IC50 in experiment [3] is above 50 µM; with PCSK9Δhelix [4] it was 49.5 µM.

B10: Compound 111 (peptide)
peptide: Pentanoyl-WNLVRIGLLR-NH2
SMILES: CCCCC(=O)N[C@@H](Cc1c[nH]c2ccccc12)C(=O)N[C@@H](CC(N)=O)C(=O)N[C@@H](CC(C)C)C(=O)N[C@H](C(=O)N[C@@H](CCCNC(=N)N)C(=O)N[C@H](C(=O)NCC(=O)N[C@@H](CC(C)C)C(=O)N[C@@H](CC(C)C)C(=O)N[C@@H](CCCNC(=N)N)C(N)=O)[C@@H](C)CC)C(C)C
Turning to B10, the IC50 in experiment [3] was above 50 µM; in the experiment with PCSK9Δhelix [4], 4.9 µM.

B11: SEQ ID NO 382 (peptide)
peptide: SGGSIPWNLERITPPR
In experiment [1], B11 came in with an ELISA of 1.41 and a s/n of 5.32. For the same molecule, in the experiment with PCSK9Δhelix [2], the ELISA was 1.64 and the s/n came to 9.01.

B12: SEQ ID NO 381 (peptide)
peptide: SGHASKGMVLSG
For the molecule B12, in experiment [1], the ELISA came to 2.49 and the s/n is 15.5. In the experiment with PCSK9Δhelix [2], this molecule returned an ELISA of 1.64 and a s/n of 7.52.

B13: Compound 49 (peptide)
peptide: Ac-DLMPWNLVRI-NH2
With B13, the half-maximal inhibitory concentration (IC50) in experiment [3] was above 50 µM; in the experiment with PCSK9Δhelix [4], 49.5 µM.

B14: Compound 35 (peptide)
peptide: Ac-DLMPWNLVRIGLLR-NH2
For the molecule B14, the IC50 in experiment [3] is above 50 µM; in the experiment with PCSK9Δhelix [4], 4.8 µM.

B15: Compound 54 (peptide)
peptide: Ac-DLMPWNLVRIGLLA-NH2
As for B15, the concentration for half-maximal inhibition (IC50) in experiment [3] is above 50 µM; with PCSK9Δhelix [4], 15.4 µM.

B16: Compound 56 (peptide)
peptide: Ac-DLMPWNLVRIGALR-NH2
Regarding B16, the half-maximal inhibitory concentration (IC50) in experiment [3] is above 50 µM; in the experiment with PCSK9Δhelix [4], 17.1 µM.

B17: Compound 41 (peptide)
peptide: Ac-DLMPANLVRIGLLR-NH2
In the case of B17, the concentration for half-maximal inhibition (IC50) in experiment [3] was above 50 µM; with PCSK9Δhelix [4], 49.5 µM.

B18: Compound 59 (peptide)
peptide: Ac-DLMPWNLVAIGLLR-NH2
B18: the IC50 was above 50 µM in experiment [3] and 49.5 µM with PCSK9Δhelix [4].

B19: Compound 57 (peptide)
peptide: Ac-DLMPWNLVRIALLR-NH2
Consider B19, for which the figures for the 50% inhibitory concentration (IC50) (in experiment [3]; with PCSK9Δhelix [4]) were above 50 µM and above 49.5 µM, respectively.

B20: Compound 44 (peptide)
peptide: Ac-DAMPWNLVRIGLLR-NH2
Consider B20, for which the concentration for half-maximal inhibition (IC50) is above 50 µM in experiment [3] and 6.9 µM with PCSK9Δhelix [4].

B21: Compound 61 (peptide)
peptide: Ac-DLMPWNAVRIGLLR-NH2
As for B21, the figures for the IC50 (in experiment [3]; with PCSK9Δhelix [4]) were above 50 µM and 49.5 µM, respectively.

B22: Compound 42 (peptide)
peptide: Ac-DLMAWNLVRIGLLR-NH2
Consider B22, for which the IC50 was above 50 µM in experiment [3] and 28.5 µM with PCSK9Δhelix [4].

B23: Compound 62 (peptide)
peptide: Ac-DLMPWALVRIGLLR-NH2
Turning to B23, the results for the 50% inhibitory concentration (IC50) (in experiment [3]; with PCSK9Δhelix [4]) were above 50 µM and 49.5 µM, respectively.

B24: Compound 43 (peptide)
peptide: Ac-DLAPWNLVRIGLLR-NH2
Regarding B24, the IC50 is above 50 µM in experiment [3] and 8.19 µM in the experiment with PCSK9Δhelix [4].

B25: Compound 60 (peptide)
peptide: Ac-DLMPWNLARIGLLR-NH2
In the case of B25, the half-maximal inhibitory concentration (IC50) in experiment [3] was above 50 µM; with PCSK9Δhelix [4], 19.2 µM.

B26: Compound 58 (peptide)
peptide: Ac-DLMPWNLVRAGLLR-NH2
For the molecule B26, the figures for the 50% inhibitory concentration (IC50) (in experiment [3]; with PCSK9Δhelix [4]) were above 50 µM and 49.5 µM, respectively.

B27: Compound 48 (peptide)
peptide: Ac-DLMPWNLVRIG-NH2
In the case of B27, the IC50 in experiment [3] is above 50 µM; with PCSK9Δhelix [4], 49.5 µM.

B28: Compound 47 (peptide)
peptide: Ac-DLMPWNLVRIGL-NH2
Take B28: the IC50 in experiment [3] was above 50 µM; with PCSK9Δhelix [4], 12.6 µM.

Values taken from patent publication US20200283478A1 (Genentech, published 2020).
